The results in this text go back to publication PMC9371702 (Proceedings of the National Academy of Sciences of the …, 2022).

For the assay, the target named is human CTLA-4 (as crystallised with 4003-1 (VH)) (human, UniProt P16410). Put plainly: crystal structure.
Sequence of human CTLA-4 (as crystallised with 4003-1 (VH)) (P16410 36-154): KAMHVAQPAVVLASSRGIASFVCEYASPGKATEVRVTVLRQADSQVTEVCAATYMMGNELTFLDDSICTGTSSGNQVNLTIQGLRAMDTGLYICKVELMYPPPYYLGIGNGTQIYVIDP

B1: 4003-1 (VH) (VHH)
VHH: EVQLVESGGGLIQPGGSLRLSCAVSGFTVSKNYMSWVRQAPGKGLEWVSVVYSGGSKTYADSVKGRFTISRDNSKNTLYLQMNSLRAEDTAVYYCARAVPHSPSSFDIWGQGTMVTVSS
In the case of B1, the binding result is “binds”.
